Test results as given in article PMC11266601.

Biological target: RDTND-RIDC/A (DUF1-RIDC/A, residues 1959–2901, C2838 to alanine), from the 6×His construct (V. vulnificus MO6-24/O)
Assay: ITC

Substance: Human calmodulin2 (CaM), 6×His/GST tag cleaved (from UniProt P0DP24 1-149) (natural protein)
- stoichiometry N: 1
